For assay [1], the target named is T1, human C3bBb (Bb from FB D279G/K350N/M458I) (human). The assay is described as follows: SPR, 37C.
The target of assay [2] is T1, human C3bBb (Bb from FB …). The assay is described as follows: SPR, 25C. In general terms: In SPR one partner is held on a chip, and binding of the other changes the refractive index at the surface.
The target in the next assay is scFcRn (human, UniProt P55899). The assay is described as follows: SPR, pH 6.0, 25C.

Where a chain is given by its changes, count along the chain named.

Chain of scFcRn (P55899 24-297, chain 1 of 2): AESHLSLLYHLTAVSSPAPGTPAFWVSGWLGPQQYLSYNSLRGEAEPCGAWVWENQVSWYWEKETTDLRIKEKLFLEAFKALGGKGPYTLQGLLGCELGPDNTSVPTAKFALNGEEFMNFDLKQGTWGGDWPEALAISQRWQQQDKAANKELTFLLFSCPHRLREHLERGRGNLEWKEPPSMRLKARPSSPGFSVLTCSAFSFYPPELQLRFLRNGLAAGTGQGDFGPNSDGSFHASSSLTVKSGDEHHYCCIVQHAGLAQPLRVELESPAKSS
Chain of scFcRn (chain, as listed by the source, chain 2 of 2): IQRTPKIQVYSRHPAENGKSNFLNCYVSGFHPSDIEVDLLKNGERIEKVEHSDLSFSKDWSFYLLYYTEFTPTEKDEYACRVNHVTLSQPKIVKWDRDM
T1 sequence (P01024 23-1663, chain 1 of 2): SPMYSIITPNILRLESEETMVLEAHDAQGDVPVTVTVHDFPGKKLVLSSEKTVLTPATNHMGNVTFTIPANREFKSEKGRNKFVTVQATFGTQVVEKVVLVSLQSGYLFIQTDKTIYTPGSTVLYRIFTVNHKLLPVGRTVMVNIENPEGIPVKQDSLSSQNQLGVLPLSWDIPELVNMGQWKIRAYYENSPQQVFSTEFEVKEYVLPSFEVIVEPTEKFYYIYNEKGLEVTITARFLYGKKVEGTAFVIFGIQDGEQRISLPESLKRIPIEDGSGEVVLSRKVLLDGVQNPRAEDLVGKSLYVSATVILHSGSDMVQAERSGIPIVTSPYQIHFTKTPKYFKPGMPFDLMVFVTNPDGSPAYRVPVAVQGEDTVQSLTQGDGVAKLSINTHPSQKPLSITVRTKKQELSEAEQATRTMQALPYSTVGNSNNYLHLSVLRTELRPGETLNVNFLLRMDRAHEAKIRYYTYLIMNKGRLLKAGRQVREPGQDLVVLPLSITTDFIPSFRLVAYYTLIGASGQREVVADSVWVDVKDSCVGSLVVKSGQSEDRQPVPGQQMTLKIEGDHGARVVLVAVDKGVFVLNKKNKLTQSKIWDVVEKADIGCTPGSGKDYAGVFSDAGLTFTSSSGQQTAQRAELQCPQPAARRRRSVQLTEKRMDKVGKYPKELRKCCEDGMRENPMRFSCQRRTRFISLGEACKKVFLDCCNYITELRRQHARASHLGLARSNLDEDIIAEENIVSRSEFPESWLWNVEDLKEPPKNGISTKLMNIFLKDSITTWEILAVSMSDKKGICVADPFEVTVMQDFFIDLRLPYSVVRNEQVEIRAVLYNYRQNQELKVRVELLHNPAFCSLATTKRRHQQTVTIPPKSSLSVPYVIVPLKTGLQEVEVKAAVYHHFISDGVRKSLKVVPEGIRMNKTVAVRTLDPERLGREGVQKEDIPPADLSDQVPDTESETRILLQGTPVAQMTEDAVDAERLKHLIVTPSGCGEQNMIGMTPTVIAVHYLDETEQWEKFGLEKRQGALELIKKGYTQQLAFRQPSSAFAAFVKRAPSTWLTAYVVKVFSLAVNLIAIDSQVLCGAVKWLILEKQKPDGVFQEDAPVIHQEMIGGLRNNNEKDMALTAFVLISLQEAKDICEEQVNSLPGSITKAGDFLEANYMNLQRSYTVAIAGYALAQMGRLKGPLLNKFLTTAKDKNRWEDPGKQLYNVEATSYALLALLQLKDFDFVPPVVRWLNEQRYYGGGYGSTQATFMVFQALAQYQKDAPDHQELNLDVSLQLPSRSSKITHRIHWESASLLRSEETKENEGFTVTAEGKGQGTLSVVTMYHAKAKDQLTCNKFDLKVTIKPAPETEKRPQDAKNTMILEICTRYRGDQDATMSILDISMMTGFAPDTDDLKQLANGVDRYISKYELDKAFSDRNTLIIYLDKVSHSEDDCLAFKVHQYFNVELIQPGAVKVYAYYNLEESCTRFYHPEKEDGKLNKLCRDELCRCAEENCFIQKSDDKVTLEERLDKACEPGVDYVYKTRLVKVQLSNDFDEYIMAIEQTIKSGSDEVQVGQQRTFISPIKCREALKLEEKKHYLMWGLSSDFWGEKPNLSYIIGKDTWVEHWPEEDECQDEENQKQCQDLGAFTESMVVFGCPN
T1 sequence (P00751 260-764 D279G/K350N/M458I, chain 2 of 2, further chain): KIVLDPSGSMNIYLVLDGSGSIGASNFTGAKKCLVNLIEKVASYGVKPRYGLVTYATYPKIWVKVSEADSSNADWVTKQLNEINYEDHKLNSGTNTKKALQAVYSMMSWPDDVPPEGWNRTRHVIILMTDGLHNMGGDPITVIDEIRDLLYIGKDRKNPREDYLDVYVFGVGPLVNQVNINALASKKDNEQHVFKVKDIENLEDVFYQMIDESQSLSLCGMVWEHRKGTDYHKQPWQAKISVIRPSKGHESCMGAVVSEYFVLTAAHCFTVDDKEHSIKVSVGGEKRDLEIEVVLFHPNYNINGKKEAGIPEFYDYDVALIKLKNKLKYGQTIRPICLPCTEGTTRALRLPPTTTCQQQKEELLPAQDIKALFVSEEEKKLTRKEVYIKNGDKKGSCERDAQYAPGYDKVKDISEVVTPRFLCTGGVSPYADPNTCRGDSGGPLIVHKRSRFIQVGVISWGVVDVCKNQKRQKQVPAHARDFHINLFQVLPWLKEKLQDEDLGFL

B1: P1AH1205 (antibody, V domains shown)
VH: KVQLVESGGGLVQPGGSLRLSCAASGFKWEHYAMSWVRQAPGKGLEWVGSISPRGDHKYYNTKFIDRFTISRDNDKNTLYLQMNSLRAEDTAVYYCARDWDYFDRWGQGTLVTVSS
VL: AIQMTQSPSSLSASVGDRVTITCQSQFWLSNYLAWYQQKPGKAPKLLIFDGDLPYERPSRFSGSGSHDEYTLTISSLQPEDFATYYCQQYREEPYTFGQGTKLEIK
Regarding B1, the Kd (as a rule, a measure of binding affinity in units of concentration) stood at 0.095 nM in assay [1] and 0.016 nM in assay [2].

B2: P1AG9372 (antibody, V domains shown)
VH: EVQLVESGGGLVQPGGSLRLSCAASGFRFDIYAMSWVRQAPGKGLEWVGEISPDGRTKYYNTKFIDRFTISRDNEKNTLYLQMNSLRAEDTAVYYCARDWEYFDNWGQGTLVTVSS
VL: B1 VL
As for B2, the values for the equilibrium dissociation constant (Kd) in assay [1] and in assay [2] were 0.0116 nM and less than 0.001 nM, respectively.

B3: P1AG9391 (antibody, V domains shown)
VH: B2 VH with E1Q, R28K, F29Y, I31V, D54R, R56D, T57S
VL: B1 VL with S25A, Q26S, F27Y, L53I, Y55W, R57I, D68E, E92D, E93T
For the molecule B3, the results for the Kd in assay [1] and in assay [2] were 0.0016 nM and less than 0.001 nM, respectively.

B4: P1AG9376 (antibody, V domains shown)
VH: B1 VH
VL: B1 VL
With B4, the Kd in assay [1] and in assay [2] was less than 0.001 nM throughout.

B5: P1AH1199 (antibody, V domains shown)
VH: B2 VH with E1Q, R28K, F29Y, I31V, D54R, R56D, T57S
VL: B1 VL with S25A, Q26S, F27Y, L53I, Y55W, R57I, D68E, E92D, E93T
For B5, the figures for the Kd in assay [1] and in assay [2] were 0.2 nM and 0.03 nM, respectively.

B6: P1AG9426 (antibody, V domains shown)
VH: B2 VH with E1Q, R28K, F29Y, I31V, D54R, R56D, T57S
VL: B1 VL with S25A, Q26S, F27Y, L53I, R57I, D68E, E93T
In the case of B6, the Kd in assay [1] was 0.014 nM; in assay [2] it was less than 0.001 nM.

B7: P1AG9420 (antibody, V domains shown)
VH: B1 VH with K1R, K28R, W29Y, E30D, D56N, N74D, D75E, R105H
VL: B1 VL with S25A, Q26S, F27Y, L53I, R57I, D68E, E93T
Regarding B7, the Kd was 0.011 nM in assay [1] and less than 0.001 nM in assay [2].

B8: P1AH1205 full Fab (antibody)
chain 1: KVQLVESGGGLVQPGGSLRLSCAASGFKWEHYAMSWVRQAPGKGLEWVGSISPRGDHKYYNTKFIDRFTISRDNDKNTLYLQMNSLRAEDTAVYYCARDWDYFDRWGQGTLVTVSSASTKGPSVFPLAPSSKSTSGGTAALGCLVKDYFPEPVTVSWNSGALTSGVHTFPAVLQSSGLYSLSSVVTVPSSSLGTQTYICNVNHKPSNTKVDKKVEPKSCD
chain 2: AIQMTQSPSSLSASVGDRVTITCQSQFWLSNYLAWYQQKPGKAPKLLIFDGDLPYERPSRFSGSGSHDEYTLTISSLQPEDFATYYCQQYREEPYTFGQGTKLEIKRTVAAPSVFIFPPSDEQLKSGTASVVCLLNNFYPREAKVQWKVDNALQSGNSQESVTEQDSKDSTYSLSSTLTLSKADYEKHKVYACEVTHQGLSSPVTKSFNRGEC
With B8, in the assay with scFcRn, the binding result was “no binding”.

B9: P1AH1199 full Fab (antibody)
chain 1: B8 chain 1 with K1Q, W29Y, E30D, H31V, S50E, H57S, D75E, D101E, R105N
chain 2: B8 chain 2 with S25A, Q26S, F27Y, L53I, Y55W, R57I, D68E, E92D, E93T
Consider B9, for which, in the assay with scFcRn, the binding result is “no binding”.

B10: P1AG9391 full IgG (antibody)
chain 1: QVQLVESGGGLVQPGGSLRLSCAASGFKYDVYAMSWVRQAPGKGLEWVGEISPRGDSKYYNTKFIDRFTISRDNEKNTLYLQMNSLRAEDTAVYYCARDWEYFDNWGQGTLVTVSSASTKGPSVFPLAPSSKSTSGGTAALGCLVKDYFPEPVTVSWNSGALTSGVHTFPAVLQSSGLYSLSSVVTVPSSSLGTQTYICNVNHKPSNTKVDKKVEPKSCDKTHTCPPCPAPEAAGGPSVFLFPPKPKDTLMASRTPEVTCVVVDVSHEDPEVKFNWYVDGVEVHNAKTKPREEQYNSTYRVVSVLTVLAQDWLNGKEYKCKVSNKALGAPIEKTISKAKGQPREPQVYTLPPSRDELTKNQVSLTCLVKGFYPSDIAVEWESNGQPENNYKTTPPVLDSDGSFFLYSKLTVDKSRWQQGNVFSCSVMHEALHNAYTQKSLSLSP
chain 2: B8 chain 2 with S25A, Q26S, F27Y, L53I, Y55W, R57I, D68E, E92D, E93T
For B10, in the assay with scFcRn, the binding result is recorded as “no binding”.

B11: P1AG9376 full IgG (antibody)
chain 1: B10 chain 1 with Q1K, Y29W, D30E, V31H, E50S, S57H, E75D, E101D, N105R
chain 2: B8 chain 2
In the case of B11, the binding result with scFcRn is on record as “no binding”.

B12: P1AG9372 full IgG (antibody)
chain 1: B10 chain 1 with Q1E, K28R, Y29F, V31I, R54D, D56R, S57T
chain 2: B8 chain 2
As to B12, the binding result in the assay with scFcRn was “no binding”.

B13: P1AG9426 full IgG (antibody)
chain 1: B10 chain 1
chain 2: B8 chain 2 with S25A, Q26S, F27Y, L53I, R57I, D68E, E93T
B13: the binding result with scFcRn is listed as “no binding”.

The values are drawn from US20260308278 (published 2026).
